Source: doi:10.1101/833699 (bioRxiv, 2019)

B1: ΔRBD2-CDTb (residues 212-751), CDTb construct that lacks the C-terminal receptor binding domain 2 (domain or fragment)
chain: SDWEDEDLDTDNDNIPDSYERNGYTIKDLIAVKWEDSFAEQGYKKYVSNYLESNTAGDPYTDYEKASGSFDKAIKTEARDPLVAAYPIVGVGMEKLIISTNEHASTDQGKTVSRATTNSKTESNTAGVSVNVGYQNGFTANVTTNYSHTTDNSTAVQDSNGESWNTGLSINKGESAYINANVRYYNTGTAPMYKVTPTTNLVLDGDTLSTIKAQENQIGNNLSPGDTYPKKGLSPLALNTMDQFSSRLIPINYDQLKKLDAGKQIKLETTQVSGNFGTKNSSGQIVTEGNSWSDYISQIDSISASIILDTENESYERRVTAKNLQDPEDKTPELTIGEAIEKAFGATKKDGLLYFNDIPIDESCVELIFDDNTANKIKDSLKTLSDKKIYNVKLERGMNILIKTPTYFTNFDDYNNYPSTWSNVNTTNQDGLQGSANKLNGETKIKIPMSELKPYKRYVFSGYSKDPLTSNSIIVKIKAKEEKTDYLVPEQGYTKFSYEFETTEKDSSNIEITLIGSGTTYLDNLSITELNSTPEILDEP
B2: activated CDTb (aCDTb; residues 212-876), cell-binding and pore-forming component of the C. difficile binary toxin (CDT) (domain or fragment)
chain: SDWEDEDLDTDNDNIPDSYERNGYTIKDLIAVKWEDSFAEQGYKKYVSNYLESNTAGDPYTDYEKASGSFDKAIKTEARDPLVAAYPIVGVGMEKLIISTNEHASTDQGKTVSRATTNSKTESNTAGVSVNVGYQNGFTANVTTNYSHTTDNSTAVQDSNGESWNTGLSINKGESAYINANVRYYNTGTAPMYKVTPTTNLVLDGDTLSTIKAQENQIGNNLSPGDTYPKKGLSPLALNTMDQFSSRLIPINYDQLKKLDAGKQIKLETTQVSGNFGTKNSSGQIVTEGNSWSDYISQIDSISASIILDTENESYERRVTAKNLQDPEDKTPELTIGEAIEKAFGATKKDGLLYFNDIPIDESCVELIFDDNTANKIKDSLKTLSDKKIYNVKLERGMNILIKTPTYFTNFDDYNNYPSTWSNVNTTNQDGLQGSANKLNGETKIKIPMSELKPYKRYVFSGYSKDPLTSNSIIVKIKAKEEKTDYLVPEQGYTKFSYEFETTEKDSSNIEITLIGSGTTYLDNLSITELNSTPEILDEPEVKIPTDQEIMDAHKIYFADLNFNPSTGNTYINGMYFAPTQTNKEALDYIQKYRVEATLQYSGFKDIGTKDKEMRNYLGDPNQPKTNYVNLRSYFTGGENIMTYKKLRIYAITPDDRELLVLSVD

Key:
SEC-MALS = target: the molecule itself; assay: SEC-MALS
AUC + SEC-MALS = target: the molecule itself; assay: AUC + SEC-MALS

Row | Protein | stoichiometry N (SEC-MALS) | stoichiometry N (AUC + SEC-MALS)
1 | B1 | 7 | –
2 | B2 | – | 14
